Measurements taken from patent publication US20090297501A1 (Chugai, published 2009).
Where a chain is given by its changes, count along the chain named. Read-outs that look alike come from different tables or passages of the source.

T1: human Mpl (human, UniProt P40238 26-635)
T1 sequence (looked up): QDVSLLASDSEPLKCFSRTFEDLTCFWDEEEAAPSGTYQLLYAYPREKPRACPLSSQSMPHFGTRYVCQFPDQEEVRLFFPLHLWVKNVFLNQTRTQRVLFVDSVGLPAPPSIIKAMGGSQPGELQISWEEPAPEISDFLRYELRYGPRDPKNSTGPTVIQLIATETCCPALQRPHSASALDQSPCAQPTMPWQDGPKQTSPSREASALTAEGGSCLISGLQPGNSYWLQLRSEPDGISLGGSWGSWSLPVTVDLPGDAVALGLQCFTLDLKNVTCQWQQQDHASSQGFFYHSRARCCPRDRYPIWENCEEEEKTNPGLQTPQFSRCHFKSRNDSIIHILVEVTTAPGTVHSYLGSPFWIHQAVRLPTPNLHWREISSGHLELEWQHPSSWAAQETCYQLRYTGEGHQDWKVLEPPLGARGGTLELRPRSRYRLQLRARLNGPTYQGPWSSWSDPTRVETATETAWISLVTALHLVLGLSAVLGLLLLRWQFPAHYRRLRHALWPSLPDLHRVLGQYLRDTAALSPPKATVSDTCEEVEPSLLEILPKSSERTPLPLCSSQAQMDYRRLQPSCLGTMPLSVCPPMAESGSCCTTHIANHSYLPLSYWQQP

B1: humanized anti-human Mpl antibody hVB22B u2-wz4 sc(Fv)2 (bulk, before separation of the structural isomers) (scFv)
chain: QVQLVQSGPEVKKPGASVKVSCKASGYTFTNSWMNWVRQRPGKGLEWIGRIYPGDGETIYNGKFRVRVTITADESTSTAYMQLSSLRSEDTAVYYCARGYDDYSFAYWGQGTTVTVSSGGGGSGGGGSGGGGSDIVMTQSPLSLPVTPGEPASISCRSSKSLLHSNGNTYLYWFLQKPGQSPQLLIYRMSNLASGVPDRFSGSGSGTDFTLKISRVEAEDVGVYYCMQHIEYPFTFGQGTKLEIKGGGGSGGGGSGGGGSQVQLVQSGPEVKKPGASVKVSCKASGYTFTNSWMNWVRQRPGKGLEWIGRIYPGDGETIYNGKFRVRVTITADESTSTAYMQLSSLRSEDTAVYYCARGYDDYSFAYWGQGTTVTVSSGGGGSGGGGSGGGGSDIVMTQSPLSLPVTPGEPASISCRSSKSLLHSNGNTYLYWFLQKPGQSPQLLIYRMSNLASGVPDRFSGSGSGTDFTLKISRVEAEDVGVYYCMQHIEYPFTFGQGTKLEIK
notes: sc(Fv)2, a single chain VH1-linker-VL2-linker-VH3-linker-VL4, not Flag-tagged; also called humanized VB22B u2-wz4 sc(Fv)2 bulk
B2: hVB22B u2-wz4 sc(Fv)2 peak 1 (bivalent scFv type structural isomer) (scFv)
chain: B1 chain
notes: also called purified u2-wz4 peak 1
B3: hVB22B u2-wz4 sc(Fv)2 peak 2 (single chain diabody type structural isomer) (scFv)
chain: B1 chain
notes: also called purified u2-wz4 peak 2
B4: modified hVB22B u2-wz4(v1) sc(Fv)2 (scFv)
chain: B1 chain with Q39E, Q176E, Q299K, Q436K
B5: modified hVB22B u2-wz4(v3) sc(Fv)2 (scFv)
chain: B1 chain with Q39E, Q176K, Q299K, Q436E
B6: anti-human Mpl antibody VB22B sc(Fv)2 peak 2 (single chain diabody type structural isomer) (scFv)
chain: QVQLQQSGPELVKPGASVKISCKASGYAFTNSWMNWVKQRPGKGLEWIGRIYPGDGETIYNGKFRVKATLTADKSSSTAYMDISSLTSEDSAVYFCARGYDDYSFAYWGQGTLVTVSAGGGGSGGGGSGGGGSDIVMTQAAPSIPVTPGESVSISCRSSKSLLHSNGNTYLYWFLQRPGQSPQLLIYRMSNLASGVPDRFSGSGSGTAFTLRISRVEAEDVGVYYCMQHIEYPFTFGSGTKLEIKGGGGSGGGGSGGGGSQVQLQQSGPELVKPGASVKISCKASGYAFTNSWMNWVKQRPGKGLEWIGRIYPGDGETIYNGKFRVKATLTADKSSSTAYMDISSLTSEDSAVYFCARGYDDYSFAYWGQGTLVTVSAGGGGSGGGGSGGGGSDIVMTQAAPSIPVTPGESVSISCRSSKSLLHSNGNTYLYWFLQRPGQSPQLLIYRMSNLASGVPDRFSGSGSGTAFTLRISRVEAEDVGVYYCMQHIEYPFTFGSGTKLEIK
B7: anti-human Mpl antibody VB22B sc(Fv)2 (scFv)
chain: B6 chain

Key:
human Mpl [1] = molecular target: T1, human Mpl; assay: cell-based or functional assay
monkey Mpl [2] = molecular target: monkey Mpl (monkey); assay: cell-based or functional assay
human Mpl [3] = molecular target: T1, human Mpl; assay: cell-based or functional assay; remark: listed apart in the source
monkey Mpl [4] = molecular target: monkey Mpl (monkey); assay: cell-based or functional assay; remark: listed apart in the source
[5] = molecular target: T2, fusion protein of GST and MG10 (Gln213 to Ala231 in the amino acid sequence of human Mpl) (human, UniProt P40238 213-231); assay: Biacore 3000, MG10-GST amine-coupled on CM5, sc(Fv)2 as analyte, bivalent analyte model, n = 3
T2 construct: the parts follow the printed name MG10-GST; also called MG10-GST fusion protein; not shown: glutathione S-transferase (GST)
Procedure: The binding activities of hVB22B u2-wz4 sc(Fv)2, and peak 1 and peak 2 separated from hVB22B u2-wz4 sc(Fv)2 were evaluated as described below. Sensor Chip CM5 Biacore) was placed in Biacore 3000 (Biacore), and a fusion protein of MG10 (Gln213 to Ala231 of human Mpl) and GST described in Section 2-1 was immobilized onto the chip by the amine-coupling method. HSS-EP Buffer (Biacore) was used as the running buffer for the measurement. The flow rate was 20 μl/min. Six concentrations of each of humanized VB22B u2-wz4 sc(Fv)2 bulk, peak 1, and peak 2 within about 5 to 150 nM were prepared using HBS-EP Buffer. Each of the samples was injected over the above-described MG10-immobilized cell for 2 minutes to reveal the binding region. Then, the measurement was conducted for 2 minutes to reveal the dissociation region. VB22B sc(Fv)2 bound to the MG10-GST fusion protein was removed by injecting 20 mM HCl for 1 minute to recover the immobilized cell. The association rate constant (ka) and dissociation rate constant (kd) were calculated from the obtained sensorgram using the BIAevaluation Version 3.1 ([…]) software applying the bivalent analyte model.

human Mpl [6] = molecular target: T1, human Mpl; assay: cell-based or functional assay; remark: listed apart in the source
monkey Mpl [7] = molecular target: monkey Mpl (monkey); assay: cell-based or functional assay; remark: listed apart in the source
[8] = molecular target: Mpl on the BaF3 cells used in FIG. 33 (human or monkey, not stated); assay: cell-based or functional assay

Row | Binder | EC50 (read off the curve) (growth of BaF3-human Mpl cells, WST-8) [A] (human Mpl [1]) [pM] | EC50 (read off the curve) (growth of BaF3-monkey Mpl cells, WST-8) [B] (monkey Mpl [2]) [pM] | EC50 (read off the curve) (growth of BaF3-human Mpl cells, WST-8) [A] (human Mpl [3]) [pM] | EC50 (read off the curve) (growth of BaF3-monkey Mpl cells, WST-8) [B] (monkey Mpl [4]) [pM] | Kd [5] [pM] | koff [5] [s⁻¹] | kon [5] [M⁻¹ s⁻¹] | EC50 (read off the curve) (growth of BaF3-human Mpl cells, WST-8) [A] (human Mpl [6]) [pM] | EC50 (read off the curve) (growth of BaF3-monkey Mpl cells, WST-8) [B] (monkey Mpl [7]) [pM] | EC50 (read off the curve) (growth of Mpl-expressing BaF3 cells, WST-8; cell line not stated) [8] [ng/mL]
1 | B1 | ~40 | ~40 | ~60 | ~20 | 10200 | 0.00617 | 608000 |  |  | 
2 | B2 | ~70 |  | ~90 |  | 12400 | 0.00727 | 586000 |  |  | 
3 | B3 | ~40 | ~30 | ~50 | ~20 | 9920 | 0.00566 | 571000 |  |  | 
4 | B4 |  |  | ~40 | ~40 |  |  |  |  |  | 
5 | B5 |  |  | ~100 |  |  |  |  |  |  | 
6 | B6 |  |  |  |  |  |  |  | ~8 | ~20 | ~0.6
7 | B7 |  |  |  |  |  |  |  | ~10 | ~30 | 
